Data published in patent CN101386648A (MICROORGANISM EPIDEMIC INST OF, dated 2009).

Key:
[1] = target: T1, F型肉毒神经毒素 (botulinum neurotoxin type F) (Clostridium botulinum, UniProt P30996 1-1274); test: ELISA
T1 sequence: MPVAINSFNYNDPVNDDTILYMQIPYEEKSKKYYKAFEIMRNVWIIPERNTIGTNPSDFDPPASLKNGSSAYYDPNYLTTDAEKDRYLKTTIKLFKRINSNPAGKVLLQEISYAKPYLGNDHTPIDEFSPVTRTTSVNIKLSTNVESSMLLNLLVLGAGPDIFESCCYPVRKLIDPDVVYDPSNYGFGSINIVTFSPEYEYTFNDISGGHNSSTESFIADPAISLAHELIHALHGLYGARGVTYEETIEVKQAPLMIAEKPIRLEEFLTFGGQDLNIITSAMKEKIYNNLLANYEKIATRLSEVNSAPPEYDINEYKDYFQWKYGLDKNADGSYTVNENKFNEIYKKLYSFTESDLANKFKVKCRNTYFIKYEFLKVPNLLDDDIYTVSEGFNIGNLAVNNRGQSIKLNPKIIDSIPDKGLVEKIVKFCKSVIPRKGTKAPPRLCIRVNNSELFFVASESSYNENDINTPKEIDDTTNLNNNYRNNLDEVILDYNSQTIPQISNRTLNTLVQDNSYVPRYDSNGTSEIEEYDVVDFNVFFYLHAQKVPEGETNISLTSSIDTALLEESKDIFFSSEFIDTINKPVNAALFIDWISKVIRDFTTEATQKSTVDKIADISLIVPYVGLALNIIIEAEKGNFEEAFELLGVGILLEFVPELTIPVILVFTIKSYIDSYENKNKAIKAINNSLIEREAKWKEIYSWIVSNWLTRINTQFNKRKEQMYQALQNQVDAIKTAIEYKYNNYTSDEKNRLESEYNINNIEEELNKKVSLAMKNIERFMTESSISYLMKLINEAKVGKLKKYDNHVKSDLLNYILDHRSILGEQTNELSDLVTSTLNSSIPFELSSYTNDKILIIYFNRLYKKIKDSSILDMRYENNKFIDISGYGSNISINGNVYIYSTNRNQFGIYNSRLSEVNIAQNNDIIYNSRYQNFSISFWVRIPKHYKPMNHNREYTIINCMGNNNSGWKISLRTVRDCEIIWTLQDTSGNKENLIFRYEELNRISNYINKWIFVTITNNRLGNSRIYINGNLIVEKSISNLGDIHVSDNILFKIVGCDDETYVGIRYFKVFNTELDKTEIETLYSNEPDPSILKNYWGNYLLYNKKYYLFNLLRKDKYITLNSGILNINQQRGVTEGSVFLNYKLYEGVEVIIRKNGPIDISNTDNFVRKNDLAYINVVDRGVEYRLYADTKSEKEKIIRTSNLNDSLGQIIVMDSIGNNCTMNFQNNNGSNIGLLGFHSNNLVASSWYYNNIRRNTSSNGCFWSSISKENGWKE

[2] = target: A型肉毒神经毒素 (botulinum neurotoxin type A) (Clostridium botulinum, UniProt P0DPI0 2-1296); test: ELISA
Chain of A型肉毒神经毒素 (botulinum neurotoxin type A) (P0DPI0 2-1296 limits assumed): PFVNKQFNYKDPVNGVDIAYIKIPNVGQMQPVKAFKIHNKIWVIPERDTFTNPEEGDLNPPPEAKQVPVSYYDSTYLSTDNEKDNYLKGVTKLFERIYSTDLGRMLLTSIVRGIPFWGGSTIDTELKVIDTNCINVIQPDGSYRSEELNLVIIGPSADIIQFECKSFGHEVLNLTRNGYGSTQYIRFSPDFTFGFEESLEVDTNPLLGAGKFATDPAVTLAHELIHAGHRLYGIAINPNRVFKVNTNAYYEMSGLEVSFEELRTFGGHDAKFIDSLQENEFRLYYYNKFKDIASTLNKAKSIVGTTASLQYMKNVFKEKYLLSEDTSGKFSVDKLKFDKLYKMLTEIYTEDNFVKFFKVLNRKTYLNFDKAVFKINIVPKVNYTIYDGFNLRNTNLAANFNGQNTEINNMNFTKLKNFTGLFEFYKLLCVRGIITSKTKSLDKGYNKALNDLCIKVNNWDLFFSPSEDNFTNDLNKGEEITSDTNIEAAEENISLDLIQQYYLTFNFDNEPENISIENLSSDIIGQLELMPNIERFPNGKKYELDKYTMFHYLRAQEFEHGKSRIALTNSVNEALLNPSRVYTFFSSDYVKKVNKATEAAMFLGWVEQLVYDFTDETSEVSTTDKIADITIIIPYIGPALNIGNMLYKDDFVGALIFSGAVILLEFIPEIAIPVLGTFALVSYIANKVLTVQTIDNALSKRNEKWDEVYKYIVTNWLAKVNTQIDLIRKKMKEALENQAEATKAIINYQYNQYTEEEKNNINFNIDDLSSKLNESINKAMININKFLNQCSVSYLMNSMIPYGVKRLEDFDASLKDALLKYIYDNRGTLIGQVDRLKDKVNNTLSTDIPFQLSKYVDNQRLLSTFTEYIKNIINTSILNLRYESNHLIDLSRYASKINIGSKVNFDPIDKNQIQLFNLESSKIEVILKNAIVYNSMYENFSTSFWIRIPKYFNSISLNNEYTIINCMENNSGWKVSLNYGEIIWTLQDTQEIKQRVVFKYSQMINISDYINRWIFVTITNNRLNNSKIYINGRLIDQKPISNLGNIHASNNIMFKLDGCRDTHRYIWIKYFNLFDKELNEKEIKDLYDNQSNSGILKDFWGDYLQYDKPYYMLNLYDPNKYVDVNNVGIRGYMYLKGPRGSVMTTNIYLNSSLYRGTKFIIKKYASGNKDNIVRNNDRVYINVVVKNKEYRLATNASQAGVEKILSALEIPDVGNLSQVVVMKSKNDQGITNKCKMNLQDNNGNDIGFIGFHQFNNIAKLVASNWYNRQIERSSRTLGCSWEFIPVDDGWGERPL

[3] = target: T2, E型肉毒神经毒素 (botulinum neurotoxin type E) (Clostridium botulinum, UniProt Q00496 2-1251); test: ELISA
T2 sequence: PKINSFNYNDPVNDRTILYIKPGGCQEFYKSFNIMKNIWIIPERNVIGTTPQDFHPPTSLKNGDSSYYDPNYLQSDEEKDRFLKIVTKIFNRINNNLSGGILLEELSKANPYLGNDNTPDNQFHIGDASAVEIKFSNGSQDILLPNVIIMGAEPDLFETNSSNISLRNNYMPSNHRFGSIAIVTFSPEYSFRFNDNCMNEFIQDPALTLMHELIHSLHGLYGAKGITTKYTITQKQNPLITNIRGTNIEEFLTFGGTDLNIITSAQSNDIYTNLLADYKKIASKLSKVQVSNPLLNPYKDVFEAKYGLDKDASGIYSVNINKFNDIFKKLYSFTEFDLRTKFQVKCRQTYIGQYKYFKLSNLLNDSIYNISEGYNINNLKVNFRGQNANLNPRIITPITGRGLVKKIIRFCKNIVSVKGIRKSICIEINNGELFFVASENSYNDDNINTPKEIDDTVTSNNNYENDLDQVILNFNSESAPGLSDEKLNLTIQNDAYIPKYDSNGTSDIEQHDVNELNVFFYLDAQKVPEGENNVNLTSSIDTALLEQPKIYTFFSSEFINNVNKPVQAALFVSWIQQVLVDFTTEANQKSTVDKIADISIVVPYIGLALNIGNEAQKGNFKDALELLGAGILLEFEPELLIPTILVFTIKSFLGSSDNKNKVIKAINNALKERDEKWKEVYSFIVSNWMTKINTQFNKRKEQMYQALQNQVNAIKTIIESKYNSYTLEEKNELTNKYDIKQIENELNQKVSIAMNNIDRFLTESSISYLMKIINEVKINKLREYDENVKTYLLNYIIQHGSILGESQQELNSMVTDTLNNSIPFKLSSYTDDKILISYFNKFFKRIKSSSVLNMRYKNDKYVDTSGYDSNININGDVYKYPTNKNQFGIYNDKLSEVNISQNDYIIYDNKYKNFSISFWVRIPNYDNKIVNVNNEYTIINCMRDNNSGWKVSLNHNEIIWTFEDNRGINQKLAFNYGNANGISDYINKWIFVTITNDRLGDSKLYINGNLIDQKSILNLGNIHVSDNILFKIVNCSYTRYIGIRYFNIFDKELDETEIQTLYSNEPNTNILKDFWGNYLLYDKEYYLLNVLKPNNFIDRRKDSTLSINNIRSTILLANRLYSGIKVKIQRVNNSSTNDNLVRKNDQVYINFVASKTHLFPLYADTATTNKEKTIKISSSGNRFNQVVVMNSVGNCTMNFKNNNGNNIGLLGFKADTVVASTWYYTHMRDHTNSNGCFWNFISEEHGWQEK

[4] = target: T3, B型肉毒神经毒素 (botulinum neurotoxin type B) (Clostridium botulinum, UniProt P10844 2-1291); test: SPR (Biacore 3000, CM5 chip), […]
T3 sequence: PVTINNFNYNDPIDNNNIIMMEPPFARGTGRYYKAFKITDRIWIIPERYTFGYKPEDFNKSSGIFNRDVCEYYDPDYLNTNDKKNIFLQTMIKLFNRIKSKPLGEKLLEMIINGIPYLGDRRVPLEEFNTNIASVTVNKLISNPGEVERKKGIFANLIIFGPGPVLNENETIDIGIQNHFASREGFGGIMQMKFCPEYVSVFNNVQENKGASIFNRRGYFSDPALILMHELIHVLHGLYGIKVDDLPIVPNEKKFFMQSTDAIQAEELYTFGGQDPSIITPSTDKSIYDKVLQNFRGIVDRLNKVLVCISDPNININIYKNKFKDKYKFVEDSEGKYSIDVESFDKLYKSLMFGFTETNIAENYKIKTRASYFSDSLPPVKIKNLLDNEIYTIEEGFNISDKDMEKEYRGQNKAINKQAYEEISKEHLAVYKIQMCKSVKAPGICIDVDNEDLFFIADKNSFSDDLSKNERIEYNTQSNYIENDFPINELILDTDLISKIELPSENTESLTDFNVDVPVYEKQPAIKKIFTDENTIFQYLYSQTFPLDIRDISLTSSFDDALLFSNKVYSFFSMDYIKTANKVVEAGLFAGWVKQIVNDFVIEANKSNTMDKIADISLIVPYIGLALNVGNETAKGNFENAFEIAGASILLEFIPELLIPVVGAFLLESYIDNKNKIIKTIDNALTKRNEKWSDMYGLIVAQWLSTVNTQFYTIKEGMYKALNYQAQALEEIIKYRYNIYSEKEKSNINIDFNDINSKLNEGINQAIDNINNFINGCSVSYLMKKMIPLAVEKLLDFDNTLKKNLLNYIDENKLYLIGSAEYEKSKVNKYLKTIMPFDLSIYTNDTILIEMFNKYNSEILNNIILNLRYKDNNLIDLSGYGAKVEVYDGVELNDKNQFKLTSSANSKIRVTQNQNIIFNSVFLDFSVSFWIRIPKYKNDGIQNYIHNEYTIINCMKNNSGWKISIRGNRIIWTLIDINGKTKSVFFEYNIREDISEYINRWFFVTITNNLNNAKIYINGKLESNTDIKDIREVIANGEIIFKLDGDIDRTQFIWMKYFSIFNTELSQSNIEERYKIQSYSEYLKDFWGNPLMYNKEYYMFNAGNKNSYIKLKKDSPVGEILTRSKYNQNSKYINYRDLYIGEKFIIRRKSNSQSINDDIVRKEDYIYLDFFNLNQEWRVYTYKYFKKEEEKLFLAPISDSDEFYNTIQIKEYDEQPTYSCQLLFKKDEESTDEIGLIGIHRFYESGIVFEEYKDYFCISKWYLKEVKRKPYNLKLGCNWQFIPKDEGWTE

Row | Binder | binding result [1] | binding result [2] | binding result [3] | Kd [4] [nM]
1 | 人源化抗B型肉毒神经毒素中和性抗体HuBNbP8 (recombinant MBP-scFv fusion protein expressed from pMAL-HuFv) (scFv) scFv: AQVQLVQSGAEVVKPGASVKLSCKASGYTFTSYYIYWVKQRPGQGLGWIGEIYPSNGGTNFNEKFKTKATLTVDKSASTAYMQLSSLTSEDSTVYYCARMGNYGGSYFDYWGQGTTLTVSSGGGGSGGGGSGGGGSDIVLTQSPATLSVTPGESVSLSCGASQSISNNLHWYQQKSHESPRLLIKFASQSISGIPSKFSGSGSGTDFSLSINSLETEDFGVFFCQQSDTWPYTFGGGTKLEIKRAAAE | no binding | no binding | no binding | 1.34
2 | 鼠源抗B型肉毒神经毒素中和性抗体MuBNbP8 (recombinant MBP-scFv fusion protein expressed from pMAL-MuFv) (scFv) scFv: AQVKLQQSGAELVKPGASVKLSCKASGYTFTSYYIYWVKQRPGQGLGWIGEIYPSNGGTNFNEKFKTKATLTVDKSSSTAYMQLSSLTSEDSTVYYCARMGNYGGSYFDYWGQGTTLTVSSGGGGSGGGGSGGGGSDIVLTQSPATLSVTPGDSVSLSCGASQSISNNLHWYQQKSHESPRLLIKFASQSISGIPSKFSGSGSGTDFSLSINSLETEDFGVFFCQQSDTWPYTFGGGTKLEIKRAAAE | no binding | no binding | no binding | –
